According to patent US20070009964A1 (MERCK SERONO, published 2007):

Key:
[1] = molecular target: T1, Human OX40R-IgG1 fusion protein (human, UniProt P43489 29-208); test: Alphascreen binding assay, increasing OX40L-CD8 with 5 nM OX40R-IgG1; 5 nM OX40-IgG1
T1 construct: range 1-208; Purified on protein G; also called OX40-IgG1; OX40-IgG; not shown: constant region of human IgG1 (hinge region, CH2 and CH3), amino acids 98-330 of SWISSPROT Acc; No. P01857
T1 sequence (looked up): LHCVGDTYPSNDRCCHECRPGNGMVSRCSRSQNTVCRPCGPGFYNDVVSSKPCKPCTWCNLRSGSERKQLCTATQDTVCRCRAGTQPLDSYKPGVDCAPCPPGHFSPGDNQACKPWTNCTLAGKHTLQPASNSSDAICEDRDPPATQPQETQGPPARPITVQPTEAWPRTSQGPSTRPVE

[2] = molecular target: T1, Human OX40R-IgG1 fusion protein; test: Alphascreen binding assay, increasing OX40L-CD8 with 10 nM OX40R-IgG1; 10 nM OX40-IgG1
[3] = molecular target: T1, Human OX40R-IgG1 fusion protein; test: Alphascreen saturation binding, 10 nM OX40R-IgG1, non-specific binding determined with 1 mM suramin
[4] = molecular target: T1, Human OX40R-IgG1 fusion protein; test: fluorescence quenching spectroscopy of OX40R-IgG1 in solution
Procedure: (§1) The fluorescence quenching assay was performed as previously described (Golabek A et al., 2000). OX40R-IgG₁ (35 micrograms) was dissolved in 500 microliters of PBS and the fluorescence spectum was recorded at 295-420 nanometers with an excitation wavelength of 290 nanometers using a spectrofluorimeter (Perkin Elmer LS50B) with the slits set at 5 nanometers. Fluorescence spectra of human OX40R-IgG₁ were then recorded in the presence of increasing concentrations (5-1000 nM) of P5 and P5-1 peptides after 15 minutes of equilibration. The fluorescence change at 336 nanometers was plotted versus peptide concentration and the resulting curves were analyzed by nonlinear regression fit with Prism® software (GraphPad).
(§2) The affinity of the peptides identified in Example 1 as inhibitor of OX40L-OX40R interaction was evaluated by fluorescence quenching spectroscopy, a technology allowing such measurements in solution, under native conditions and without beads or other supports. This method is based on monitoring the changes in the intrinsic fluorescence of a protein (OX40R-IgG₁) upon its binding with another protein (P5 or P5-1). […]

[5] = molecular target: T1, Human OX40R-IgG1 fusion protein; test: Alphascreen-based competition assay against OX40L-CD8 on OX40R-IgG1; P5 (amino acids 94-124)
Procedure: (§3) The soluble components (OX40-IgG₁, OX40L-CD8 and biotinylated anti-CD8 antibody) were mixed at the concentration described before for the competition assays with OX40L and suramin (FIG. 4), together with various concentrations of each peptide in a 5 microliter volume into a first addition step. The streptavidin donor and Protein A acceptor beads were added 30 minutes later. The plates were incubated for 2 hours in the dark, at room temperature and with shaking, before reading at a long excitation wavelength of 680 nm combined with a shorter emission wavelength of 520-620 nanometers, as described in Example 1.

[6] = molecular target: T1, Human OX40R-IgG1 fusion protein; test: fluorescence quenching spectroscopy of OX40R-IgG1 intrinsic fluorescence, non-linear regression
Procedure: as §1, §2

[7] = molecular target: T1, Human OX40R-IgG1 fusion protein; test: Alphascreen competition against OX40L-CD8, IC50 transformed by the Cheng-Prusoff equation
Procedure: (§4) In the standard assay, OX40-IgG₁ and OX40L-CD8 were incubated together for 30 minutes, and then biotinylated anti-CD8 antibody (10 nM) was added. Following another incubation period of 30 minutes, streptavidin donor beads (20 μg/ml) and Protein A acceptor beads (20 μg/ml) were added to each individual well. The plate was counted 1 hour later using a Packard Fusion™ reader (Biosignal Packard) set at a read time of 1 second/well. Owing to the light sensitivity of the donor and acceptor beads, the experiments were carried out under […] and all incubation periods were performed at room temperature. The plate was read at an excitation wavelength of 680 nanometers combined with a shorter emission wavelength of 520-620 nanometers.
(§5) The ability of two known competitors of OX40L-OX40R interactions (untagged recombinant human soluble OX40L and suramin), which are themselves unable to generate an Alphascreen™ signal in this assay in absence of OX40L-CD8, to displace OX40L-CD8 from OX40R-IgG₁ was investigated. […] Increasing concentrations of OX40L (3 μM-0.1 pM) or suramin (1 mM -1 nM) were added to a reaction mixture also containing OX40-IgG₁ (10 nM) and OX40L-CD8 (40 nM). […] These values can be transformed by the Cheng-Prusoff equation (Cheng, Y C and Prusoff, W H, 1973) to Kᵢ values of 2.0 nM for OX40L and 26.3 μM for suramin. […]

[8] = molecular target: T1, Human OX40R-IgG1 fusion protein; test: Alphascreen competition, soluble OX40L displacing OX40L-CD8 (40 nM) from OX40R-IgG1 (10 nM)
Procedure: as §4, §5

[9] = molecular target: T1, Human OX40R-IgG1 fusion protein; test: Alphascreen-based competition assay against OX40L-CD8 on OX40R-IgG1; P5-1 (amino acids 107-116)
Procedure: as §3

## Human OX40L-murine CD8 (from UniProt P01731 28-196) (ligand)
[1]
  EC50: 7.7 nM
[2]
  EC50: 7.9 nM
[3]
  Kd: 20.7 nM

B1: Peptide P5 (amino acids 94-124 of human OX40L) (peptide)
peptide: IINCDGFYLISLKGYFSQEVNISLHYQKDEE
notes: Synthetic peptide (Epytop), purity 85-97%
[4]
  Kd: ~7.9 nM
[5]
  Kd: ~10000 nM
[6]
  Kd: 7.96 nM

B2: Recombinant human soluble OX40L (ligand)
chain: QVSHRYPRIQSIKVQFTEYKKEKGFILTSQKEDEIMKVQNNSVIINCDGFYLISLKGYFSQEVNISLHYQKDEEPLFQLKKVRSVNSLMVASLTYKDKVYLNVTTDNTSLDDFHVNGGELILIHQNPGEFCVL
notes: also called untagged recombinant human soluble OX40L; not shown: Glutathione-S-Transferase (GST) fusion partner
[7]
  Ki: 2 nM
[8]
  IC50: 5.9 nM

## GYFSQEVNIS (Synthetic peptide (Epytop)) [Peptide P5-1 (amino acids 107-116 of human OX40L)]
[4]
  Kd: ~24.6 nM
[9]
  Kd: ~62000 nM
[6]
  Kd: 24.6 nM
